According to paper PMC8372624:

Target: fluorescently labeled non-covalent analog of peptide 5 with a non-nucleophilic acetate group on position 133 (UniProt P46937)
Experiment: fluorescence polarisation

Chain of UniProt P46937 (P46937 whole entry, looked up, tested part not stated): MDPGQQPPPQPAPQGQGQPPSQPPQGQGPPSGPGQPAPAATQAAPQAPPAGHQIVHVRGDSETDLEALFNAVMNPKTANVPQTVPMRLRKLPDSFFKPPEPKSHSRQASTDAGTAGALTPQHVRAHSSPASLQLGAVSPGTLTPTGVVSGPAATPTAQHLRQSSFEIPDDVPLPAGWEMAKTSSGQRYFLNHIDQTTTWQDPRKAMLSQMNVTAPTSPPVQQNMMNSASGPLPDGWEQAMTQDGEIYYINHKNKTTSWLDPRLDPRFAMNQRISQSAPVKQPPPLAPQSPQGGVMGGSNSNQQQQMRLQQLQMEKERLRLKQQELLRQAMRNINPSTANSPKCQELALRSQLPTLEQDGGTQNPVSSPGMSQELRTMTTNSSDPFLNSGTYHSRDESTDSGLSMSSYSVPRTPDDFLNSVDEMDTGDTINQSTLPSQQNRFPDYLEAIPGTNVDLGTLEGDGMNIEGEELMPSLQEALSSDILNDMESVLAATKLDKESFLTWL

B1: recombinant full-length 14-3-3σ (1–248) (natural protein)
chain: MERASLIQKAKLAEQAERYEDMAAFMKGAVEKGEELSCEERNLLSVAYKNVVGGQRAAWRVLSSIEQKSNEEGSEEKGPEVREYREKVETELQGVCDTVLGLLDSHLIKEAGDAESRVFYLKMKGDYYRYLAEVATGDDKKRIIDSARSAYQEAMDISKKEMPPTNPIRLGLALNFSVFHYEIANSPEEAISLAKTTFDEAMADLHTLSEDSYKDSTLIMQLLRDNLTLWTADNAGEEGGEAPQEPQS
  Kd: 0.106 µM
